In assay [1] the target is T1, recombinant soluble hTNFSF13b (native) (human, UniProt Q9Y275 134-285).
T1 construct: also called huTNFSF13b; Human TNFSF13b
Nature of the assay: SPR (BIAcore 2000), antibody captured by anti-human IgG Fc, hTNFSF13b from 50 nM, Langmuir 1:1 model. In general terms: In SPR one partner is held on a chip, and binding of the other changes the refractive index at the surface.

A further assay addresses T2, EGFR-AP fusion protein (UniProt P00533 25-645).
T2 construct: Immobilized on the BIAcore sensor chip; construct not described
The assay can be described thus: SPR (BIAcore), EGFR-AP immobilized, antibody 1.5 nM to 100 nM.

T1 sequence (Q9Y275 134-285 limits assumed): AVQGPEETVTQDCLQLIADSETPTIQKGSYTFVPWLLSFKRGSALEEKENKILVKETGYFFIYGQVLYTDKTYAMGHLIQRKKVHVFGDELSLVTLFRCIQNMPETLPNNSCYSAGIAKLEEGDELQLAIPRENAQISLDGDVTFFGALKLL

B1: 4A5-3.1.1-B4 (antibody, V domains shown)
VH: QVQLQQWGAGLLKPSETLSLTCAVYGGSFSGYYWSWIRQPPGKGLEWIGEINHSGSTNYNPSLKSRVTISVDTSKNQFSLKLSSVTAADTAVYYCARGYYDILTGYYYYFDYWGQGTLVTVSS
VL: EIVLTQSPATLSLSPGERATLSCRASQSVSRYLAWYQQKPGQAPRLLIYDASNRATGIPARFSGSGSGTDSTLTISSLEPEDFAVYYCQQRSNWPRTFGQGTKVEIKR
Regarding B1, the Kd in assay [1] worked out at 38 µM.

B2: IMC-11F8 IgG (antibody, V domains shown)
VH: QVQLQESGPGLVKPSQTLSLTCTVSGGSISSGDYYWSWIRQPPGKGLEWIGYIYYSGSTDYNPSLKSRVTMSVDTSKNQFSLKVNSVTAADTAVYYCARVSIFGVGTFDYWGQGTLVTVSS
VL: EIVMTQSPATLSLSPGERATLSCRASQSVSSYLAWYQQKPGQAPRLLIYDASNRATGIPARFSGSGSGTDFTLTISSLEPEDFAVYYCHQYGSTPLTFGGGTKAEIK
With B2, in the assay with EGFR-AP fusion protein, the Kd amounted to 0.00032 µM, the koff came out at 0.00058 s⁻¹ and the kon came out at 1.86e+06 M⁻¹ s⁻¹.

What is called Kd is the free concentration of one partner at which half of the binding sites on the other are occupied at equilibrium, for simple one-to-one binding. One may read the koff as the rate constant with which the complex falls apart. Low values mean slow dissociation, high ones fast dissociation. What is called kon is a measure of how fast the partners come together. Low readings indicate slower complex formation, high ones faster complex formation.

(Values after patent US20140341888A1 (CORNING, published 2014).)
